Results as given in paper PMC5715124.

Each substance was assayed against mCherry-LacR-CSB-ATPase (assay: immunofluorescence co-localisation at the lac operator array (mCherry-LacR tethering) in U2OS-265 cells). Details: 250 Myc-expressing cells scored per experiment; three independent experiments; parent: est. 28; read off a plot.

In order of falling response:
1. Myc-CSB-N S10D  32 % of cells
2. Myc-CSB-N S10D; S158D  30 % of cells
3. Myc-CSB-N S158D  28 % of cells
4. Myc-CSB-N S10A  21 % of cells
5. Myc-CSB-N S158A  18 % of cells
6. Myc-CSB-N S10A; S158A  17 % of cells
